Numbering of substitutions follows the chain as printed.
B1: EMI1^ZT (ZBR and Tail; residues 363-447) (domain or fragment)
chain: SEVAKTLKKNESLKACIRCNSPAKYDCYLQRATCKREGCGFDYCTKCLCNYHTTKDCSDGKLLKASCKIGPLPGTKKSKKNLRRL
B2: EMI1^DLZT (D-box, Linker, ZBR, Tail; C-terminal APC/C inhibitory domain, residues 305-447) (domain or fragment)
chain: NNNKFSPHASTREYVMFRTPLASVQKSAAQTSLKKDAQTKLSNQGDQKGSTYSRHNEFSEVAKTLKKNESLKACIRCNSPAKYDCYLQRATCKREGCGFDYCTKCLCNYHTTKDCSDGKLLKASCKIGPLPGTKKSKKNLRRL
B3: EMI1^D(Mut)LZT (EMI1^DLZT with alanines in place of Arg322 and Leu325 of the D-box RxxL motif) (domain or fragment)
chain: B2 chain with R18A, L21A

What was measured:
[1] = target: recombinant human APC/C (without CDH1) (human, UniProt Q9H1A4;Q9UJX6;P30260;Q9UJX5;Q9UJX4;Q13042;Q9UJX3;Q9UJX2;Q9UM13;Q9NYG5;Q9BS18;P60 …); assay: enzyme inhibition
[2] = target: recombinant human APC/C^CDH1 (Anaphase Promoting Complex/Cyclosome with CDH1) (human, UniProt Q9H1A4;Q9UJX6;P30260;Q9UJX5;Q9UJX4;Q13042;Q9UJX3;Q9UJX2;Q9UM13;Q9NYG5;Q9BS18;P60 …); assay: enzyme inhibition

Binder	Ki [1] [nM]	Ki [2] [nM]
B1	2000 ± 400	
B2		≤ 2.5
B3	220 ± 37	
